Measured values published in PMC8230831.

Target: CXC chemokine receptor 4 (CXCR4) (human (endogenous in HeLa)) (UniProt P61073)
Settings: scale: apoptotic figures per 400 x magnification tumor field

Chain of UniProt P61073 (P61073 whole entry): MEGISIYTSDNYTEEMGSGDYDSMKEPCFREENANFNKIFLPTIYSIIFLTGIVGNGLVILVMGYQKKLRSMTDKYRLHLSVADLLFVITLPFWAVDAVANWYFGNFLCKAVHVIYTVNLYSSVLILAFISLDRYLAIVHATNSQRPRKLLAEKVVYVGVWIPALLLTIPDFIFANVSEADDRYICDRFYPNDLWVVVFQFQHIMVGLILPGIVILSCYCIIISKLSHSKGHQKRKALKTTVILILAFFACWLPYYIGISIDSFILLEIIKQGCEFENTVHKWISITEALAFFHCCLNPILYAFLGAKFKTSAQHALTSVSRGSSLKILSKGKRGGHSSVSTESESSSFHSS

apoptotic figures in CXCR4+ M5 colorectal tumors of mice, 0.5 to 24 h after a single 200 µg i.v. dose (histology); peak at 24 h: 30
Substance: biparatopic EPIX4-(RK)-GFP-H6/T22-GFP-H6 NPs (complex)
